The target in assay [1] is mouse IgG1 Fc fused SARS-CoV-1 RBD (Sino Biological, 40150-V05H) (SARS-CoV-1, isolate not named, UniProt P59594). As to the kind of experiment: BLI.
Assay [2] concerns the target monomeric human Fc-fused SARS-CoV-2_RBD-SD1 (SARS-CoV-2 (Wuhan-Hu-1), UniProt P0DTC2). The assay is described as follows: BLI.
The target in assay [3] is SARS-CoV-2 spike expressed on the surface of HEK293 cells (SARS-CoV-2 (Wuhan-Hu-1), UniProt P0DTC2). The assay is described as follows: flow cytometry on cells.

Where a chain is given by its changes, count along the chain named.

B1: humVHH_S56A (VHH)
VHH: EVQLVESGGGLVQPGGSLRLSCAASGRTFSEYAMGWFRQAPGKEREFVATISWSGGATYYTDSVKGRFTISRDNAKNTVYLQMNSLRPEDTAVYYCAAAGLGTVVSEWDYDYDYWGQGTLVTVSS
Turning to B1, in assay [1], the binding result was “binds”. Also, in assay [2], the “fold increase in affinity over humVHH” value is around 7 fold.

B2: humVHH (VHH)
VHH: B1 VHH with A57S
In the case of B2, the binding result in assay [3] and in assay [2] was “binds” throughout.

For the origin of these results see article doi:10.1101/2021.03.08.433449 (bioRxiv, 2021).
